The results in this text go back to PMC3754917.

This experiment concerns the target transcobalamin saturated with vitamin B12 (holoTC) (human (endogenous in serum)) (UniProt P20062). Nature of the experiment: co-IP; serum samples of 6 pregnant women (weeks 15, 25 and 35) exposed to anti-TC coated magnetic beads; sCD320 measured by in-house sandwich ELISA before and after the precipitation.
Chain of UniProt P20062 (P20062 19-427): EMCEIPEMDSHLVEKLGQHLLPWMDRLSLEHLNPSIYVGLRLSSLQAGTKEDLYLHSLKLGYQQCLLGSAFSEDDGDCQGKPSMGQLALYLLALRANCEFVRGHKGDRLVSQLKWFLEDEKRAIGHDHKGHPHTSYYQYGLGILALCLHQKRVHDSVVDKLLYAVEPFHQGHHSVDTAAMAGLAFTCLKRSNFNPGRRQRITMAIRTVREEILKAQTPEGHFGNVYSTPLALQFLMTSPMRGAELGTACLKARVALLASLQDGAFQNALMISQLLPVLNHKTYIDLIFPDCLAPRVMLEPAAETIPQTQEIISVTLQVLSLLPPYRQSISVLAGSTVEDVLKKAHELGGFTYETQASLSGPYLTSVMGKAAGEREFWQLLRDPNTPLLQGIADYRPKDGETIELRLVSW

“soluble CD320 (sCD320), soluble receptor for transcobalamin-vitamin B12 (from UniProt Q9NPF0 36-229)”: the percent of sCD320 removed by precipitation with antibodies against TC (week 15, median) is 36%; the percent of sCD320 removed by precipitation with antibodies against TC (week 25, median) came out at 36%; the percent of sCD320 removed by precipitation with antibodies against TC (week 35, median) is 40%; the stoichiometry N – broadly, the number of molecules, sites or subunits per partner or assembly – was 1.
